Source: the supplement of paper PMC7877785
± gives the uncertainty stated by the source.

Assay: self-splicing fitness, log relative to wild type (ln ratio); higher = more splicing; Tetrahymena group I intron in knt gene, E. coli kanamycin selection, DiMSum; sequences stand for … in CUCUCU…GGAGGGAAAAGUUAUCAGGCAUGCACCUGGUAGCUAGUCUUUAAACCAAUAGAUUGCAUCGGUUUAAAAGGCAAGACCGUCAAAUUGCGGGAAAGGGGUCAACAGCCGUUCAGUACCAAGUCUCAGGGGAAACUUUGAGAUGGCCUUGCAAAGGGUAUGGUAAUAAGCUGACGGACAUGGUCCUAACCACGCAGCCAAGUCCUAAGUCAACAGAUCUUCUGUUGAUAUGGAUGCAGUUCACAGACUAAAUGUCGGUCGGGGAAGAUGUAUUCUUCUCAUAAGAUAUAGUCGGACCUCUCCUUAAUGGGAGCUAGCGGAUGAAGUGAUGCAACACUGGAGCCGCUGGGAACUAAUUUGUAUGCGAAAGUAUAUUGAUUAGUUUUGGAGUACUCGUGGUCG
In short: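 Pooled colonies went to amplicon sequencing on an Illumina HiSeq 2500 after six replicate transformations. The plates were LB agar with 100 μg/mL carbenicillin, 50 μM IPTG and 0.2% rhamnose, with or without 25 μg/mL kanamycin, incubated overnight at 37°C or 30°C. The E. coli BL21(DE3) library had all eight P1ex-region intron nucleotides randomised, the intron placed in the knt kanamycin-resistance gene on pET-22b(+). DiMSum fitness is the error-weighted combination of replicate fold changes, kanamycin against none, normalised to wild type.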

Row | Sequence | self-splicing fitness (ln) (30 °C) | self-splicing fitness (ln) (37 °C)
1 | CUGCAGCAAUAUUACGGUGA | -2.37 ± 0.12 | -0.923 ± 0.099
2 | AUCUAGCAAUAUUACGUCAC | -4.04 ± 0.26 | -2.11 ± 0.2
3 | CUACAGCAAUAUUACGAGUA | -3.39 ± 0.18 | -1.71 ± 0.12
4 | UGUCAGCAAUAUUACGGGCU | -1.7 ± 0.086 | -1.4 ± 0.12
5 | CAAUAGCAAUAUUACGGUAC | -3.25 ± 0.19 | -2.08 ± 0.18
6 | AGGGAGCAAUAUUACGGCAC | – | -1.77 ± 0.42
7 | UAAGAGCAAUAUUACGCCCU | -3.1 ± 0.31 | -2.01 ± 0.41
8 | AAGGAGCAAUAUUACGUACU | -0.884 ± 0.11 | -0.189 ± 0.11
9 | AGUCAGCAAUAUUACGUGGC | -2.31 ± 0.16 | -2.21 ± 0.15
10 | CGAAAGCAAUAUUACGGGCA | -1.85 ± 0.11 | -0.138 ± 0.1
11 | UUAUAGCAAUAUUACGCUGU | -3.59 ± 0.37 | -1.06 ± 0.37
12 | GGUCAGCAAUAUUACGACCA | -0.982 ± 0.16 | -0.657 ± 0.23
13 | UCGAAGCAAUAUUACGUCCG | -0.163 ± 0.1 | -0.412 ± 0.12
14 | CAUCAGCAAUAUUACGCAUA | -1.59 ± 0.089 | -0.647 ± 0.1
15 | GGAUAGCAAUAUUACGAGUC | -2.17 ± 0.26 | -1.06 ± 0.22
16 | CGCUAGCAAUAUUACGGACU | -0.928 ± 0.09 | -1.08 ± 0.12
17 | AGAUAGCAAUAUUACGUACG | -1.38 ± 0.096 | -0.00695 ± 0.11
18 | CAGAAGCAAUAUUACGAAAG | -1.29 ± 0.11 | -0.392 ± 0.12
19 | UUCAAGCAAUAUUACGGUUG | -2.96 ± 0.14 | -2.41 ± 0.18
20 | UGUGAGCAAUAUUACGUUCA | -3.06 ± 0.31 | -1.56 ± 0.39

Row | Sequence | self-splicing fitness (ln) (30 °C) | self-splicing fitness (ln) (37 °C)
21 | GGGCAGCAAUAUUACGUGAC | -0.997 ± 0.13 | -1.03 ± 0.21
22 | CGCGAGCAAUAUUACGUCGA | -4.28 ± 0.46 | -2.73 ± 0.24
23 | UCCAAGCAAUAUUACGCGUA | -0.121 ± 0.056 | 0.286 ± 0.06
24 | CACGAGCAAUAUUACGGCAU | -3.23 ± 0.2 | -3.52 ± 0.33
25 | GGGAAGCAAUAUUACGACAU | -0.662 ± 0.015 | -0.341 ± 0.034
26 | AAGGAGCAAUAUUACGCUGC | -3.07 ± 0.38 | -2.68 ± 0.26
27 | AAGCAGCAAUAUUACGUGUA | -1.83 ± 0.081 | -0.134 ± 0.077
28 | GUCCAGCAAUAUUACGGCUU | -0.269 ± 0.068 | 0.16 ± 0.087
29 | GGGAAGCAAUAUUACGGCAG | -2.64 ± 0.34 | –
30 | UAGGAGCAAUAUUACGAAUA | -1.13 ± 0.41 | –
31 | UGUCAGCAAUAUUACGCUAA | -0.476 ± 0.071 | 0.355 ± 0.094
32 | GAUAAGCAAUAUUACGUUGC | -3.38 ± 0.15 | -2.3 ± 0.21
33 | GUCGAGCAAUAUUACGUCCG | -4 ± 0.43 | -0.959 ± 0.3
34 | UCCGAGCAAUAUUACGGCAA | -1.43 ± 0.11 | -0.233 ± 0.13
35 | CCCAAGCAAUAUUACGGGUG | -3.36 ± 0.093 | -1.79 ± 0.077
36 | CGGCAGCAAUAUUACGCCGG | -2.15 ± 0.17 | -2.16 ± 0.23
37 | AUGCAGCAAUAUUACGCAUC | – | -2.67 ± 0.28
38 | AUUAAGCAAUAUUACGUCCG | -1.47 ± 0.13 | -0.734 ± 0.17
39 | ACAGAGCAAUAUUACGGCUU | -3.27 ± 0.23 | -1.99 ± 0.18
